Test results as given in publication PMC12043515, “Stepwise neofunctionalization of the NF-κB family member Rel during vertebrate evolution”.

Experiments:
Rel RHR homodimer [1] = target: T1, Rel RHR homodimer (UniProt P15307 8-297); test: SPR; less stable than κB2; EMSA: 10 mM Tris-HCl pH 7.5, 150 mM NaCl, 1 mM DTT, 1 mM EDTA, 5% glycerol, 80 ng/ul dI-dC, 200 ng/ul BSA, 4 C; off-rate with 100-fold unlabeled consensus. SPR: 10 mM HEPES pH 7.5, 150 mM NaCl, 3 mM EDTA, 0.005% Tween 20, 10 C; details: protein: recombinant; chain copies: 2; label: biotin
Rel RHR homodimer [2] = target: T1, Rel RHR homodimer; test: SPR; most stable of Il12b motifs; EMSA: 10 mM Tris-HCl pH 7.5, 150 mM NaCl, 1 mM DTT, 1 mM EDTA, 5% glycerol, 80 ng/ul dI-dC, 200 ng/ul BSA, 4 C; off-rate with 100-fold unlabeled consensus. SPR: 10 mM HEPES pH 7.5, 150 mM NaCl, 3 mM EDTA, 0.005% Tween 20, 10 C; details: protein: recombinant; chain copies: 2; label: biotin
Rel RHR homodimer [3] = target: T1, Rel RHR homodimer; test: EMSA; three dimers bound simultaneously; EMSA: 10 mM Tris-HCl pH 7.5, 150 mM NaCl, 1 mM DTT, 1 mM EDTA, 5% glycerol, 80 ng/ul dI-dC, 200 ng/ul BSA, 4 C; off-rate with 100-fold unlabeled consensus. SPR: 10 mM HEPES pH 7.5, 150 mM NaCl, 3 mM EDTA, 0.005% Tween 20, 10 C; details: protein: recombinant; chain copies: 2; label: 32P
RelA RHR homodimer = RelA RHR homodimer (UniProt Q04207 19-306); test: EMSA; only one dimer bound; EMSA: 10 mM Tris-HCl pH 7.5, 150 mM NaCl, 1 mM DTT, 1 mM EDTA, 5% glycerol, 80 ng/ul dI-dC, 200 ng/ul BSA, 4 C; off-rate with 100-fold unlabeled consensus. SPR: 10 mM HEPES pH 7.5, 150 mM NaCl, 3 mM EDTA, 0.005% Tween 20, 10 C; details: protein: recombinant; chain copies: 2; label: 32P
Rel RHR homodimer [4] = target: T1, Rel RHR homodimer; test: SPR; slower off-rate than on …; EMSA: 10 mM Tris-HCl pH 7.5, 150 mM NaCl, 1 mM DTT, 1 mM EDTA, 5% glycerol, 80 ng/ul dI-dC, 200 ng/ul BSA, 4 C; off-rate with 100-fold unlabeled consensus. SPR: 10 mM HEPES pH 7.5, 150 mM NaCl, 3 mM EDTA, 0.005% Tween 20, 10 C; details: protein: recombinant; chain copies: 2; label: biotin
Rel RHR homodimer [5] = target: T1, Rel RHR homodimer; test: EMSA; EMSA: 10 mM Tris-HCl pH 7.5, 150 mM NaCl, 1 mM DTT, 1 mM EDTA, 5% glycerol, 80 ng/ul dI-dC, 200 ng/ul BSA, 4 C; off-rate with 100-fold unlabeled consensus. SPR: 10 mM HEPES pH 7.5, 150 mM NaCl, 3 mM EDTA, 0.005% Tween 20, 10 C; details: protein: recombinant; chain copies: 2; label: 32P
Rel RHR homodimer [6] = target: T1, Rel RHR homodimer; test: SPR; less stable than κB2 and κB1; EMSA: 10 mM Tris-HCl pH 7.5, 150 mM NaCl, 1 mM DTT, 1 mM EDTA, 5% glycerol, 80 ng/ul dI-dC, 200 ng/ul BSA, 4 C; off-rate with 100-fold unlabeled consensus. SPR: 10 mM HEPES pH 7.5, 150 mM NaCl, 3 mM EDTA, 0.005% Tween 20, 10 C; details: protein: recombinant; chain copies: 2; label: biotin

T1 sequence (P15307 8-297): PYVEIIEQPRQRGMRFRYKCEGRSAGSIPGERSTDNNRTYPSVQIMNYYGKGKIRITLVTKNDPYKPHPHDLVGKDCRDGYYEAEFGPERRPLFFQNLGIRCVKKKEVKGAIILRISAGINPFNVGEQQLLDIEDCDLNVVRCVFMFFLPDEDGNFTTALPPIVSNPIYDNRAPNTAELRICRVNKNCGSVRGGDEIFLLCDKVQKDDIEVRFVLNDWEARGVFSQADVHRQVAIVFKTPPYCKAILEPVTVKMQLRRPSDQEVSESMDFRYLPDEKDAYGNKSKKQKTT
RelA RHR homodimer, sequence (Q04207 19-306): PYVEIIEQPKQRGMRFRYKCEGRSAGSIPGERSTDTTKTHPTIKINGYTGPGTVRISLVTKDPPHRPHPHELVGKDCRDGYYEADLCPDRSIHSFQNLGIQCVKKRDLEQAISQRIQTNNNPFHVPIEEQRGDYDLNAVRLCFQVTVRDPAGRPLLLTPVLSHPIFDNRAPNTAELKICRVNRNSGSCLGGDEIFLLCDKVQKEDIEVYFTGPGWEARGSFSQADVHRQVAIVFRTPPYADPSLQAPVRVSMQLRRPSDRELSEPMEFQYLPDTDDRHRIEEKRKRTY

B1: κB1 (SPR) (dsDNA)
DNA 1: CCTAACATCAGGAACTTCTTTGATGTTAGG
DNA 2: CCTAACATCAAAGAAGTTCCTGATGTTAGG
- binding result (Rel RHR homodimer [1]): binds

B2: κB2 (SPR) (dsDNA)
DNA 1: CCTAACATCAAAAATTCCCCTGATGTTAGG
DNA 2: CCTAACATCAGGGGAATTTTTGATGTTAGG
- binding result (Rel RHR homodimer [2]): binds

B3: κB1+2+3 (dsDNA)
DNA 1: AGGAACTTCTTAAAATTCCCCCAGAATGTTTTGACA
DNA 2: TGTCAAAACATTCTGGGGGAATTTTAAGAAGTTCCT
- binding result (Rel RHR homodimer [3]): binds
- binding result (RelA RHR homodimer): binds

B4: SPR GGGGGTTTTT (dsDNA)
DNA 1: CCTAACATCAGGGGGTTTTTTGATGTTAGG
DNA 2: CCTAACATCAAAAAACCCCCTGATGTTAGG
- binding result (Rel RHR homodimer [4]): binds

B5: κB1 EMSA probe (dsDNA)
DNA 1: CCTAACATCAGGAACTTCTTTGATGTTAGG
DNA 2: CCTAACATCAAAGAAGTTCCTGATGTTAGG
- binding result (Rel RHR homodimer [5]): binds

B6: κB3 EMSA probe (dsDNA)
DNA 1: CCTAACATCAAGAATGTTTTTGATGTTAGG
DNA 2: CCTAACATCAAAAACATTCTTGATGTTAGG
- binding result (Rel RHR homodimer [5]): binds

B7: κB3 (SPR) (dsDNA)
DNA 1: CCTAACATCAAGAATGTTTTTGATGTTAGG
DNA 2: CCTAACATCAAAAACATTCTTGATGTTAGG
- binding result (Rel RHR homodimer [6]): binds

B8: κB2 EMSA probe (dsDNA)
DNA 1: CCTAACATCAAAAATTCCCCGATGTTAGG
DNA 2: CCTAACATCGGGGAATTTTTGATGTTAGG
- binding result (Rel RHR homodimer [5]): binds
